Experimental data published in PMC10764318.

Key:
Assay in all cases: BLI
[1] = target: WRAIR-5005 (rhesus macaque)
[2] = target: WRAIR-5011 (rhesus macaque)
[3] = target: WRAIR-5001 (rhesus macaque | human)
[4] = target: WRAIR-5001 (rhesus macaque)
[5] = target: WRAIR-5004 (rhesus macaque)
WRAIR-5004 (rhesus macaque), sequence (VH, as listed by the source, chain 1 of 2): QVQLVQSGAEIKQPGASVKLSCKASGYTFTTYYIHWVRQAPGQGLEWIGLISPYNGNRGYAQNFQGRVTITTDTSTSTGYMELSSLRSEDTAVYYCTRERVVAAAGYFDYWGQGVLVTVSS
WRAIR-5004 (rhesus macaque), sequence (VL, as listed by the source, chain 2 of 2): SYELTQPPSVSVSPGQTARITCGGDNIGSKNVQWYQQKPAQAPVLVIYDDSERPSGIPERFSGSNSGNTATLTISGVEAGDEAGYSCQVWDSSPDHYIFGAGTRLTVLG

WRAIR-5011 (rhesus macaque), sequence (VH, as listed by the source, chain 1 of 2): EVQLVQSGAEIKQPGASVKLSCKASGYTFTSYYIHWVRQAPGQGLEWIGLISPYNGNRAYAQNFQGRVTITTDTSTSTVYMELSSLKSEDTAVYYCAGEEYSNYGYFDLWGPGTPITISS
WRAIR-5011 (rhesus macaque), sequence (VL, as listed by the source, chain 2 of 2): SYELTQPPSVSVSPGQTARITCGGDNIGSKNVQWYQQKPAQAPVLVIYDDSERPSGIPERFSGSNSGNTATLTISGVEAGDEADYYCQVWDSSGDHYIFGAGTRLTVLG
WRAIR-5005 (rhesus macaque), sequence (VH, as listed by the source, chain 1 of 2): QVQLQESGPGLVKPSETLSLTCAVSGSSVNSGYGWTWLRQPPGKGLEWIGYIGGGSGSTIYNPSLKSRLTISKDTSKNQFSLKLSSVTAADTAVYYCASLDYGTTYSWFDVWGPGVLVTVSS
WRAIR-5005 (rhesus macaque), sequence (VL, as listed by the source, chain 2 of 2): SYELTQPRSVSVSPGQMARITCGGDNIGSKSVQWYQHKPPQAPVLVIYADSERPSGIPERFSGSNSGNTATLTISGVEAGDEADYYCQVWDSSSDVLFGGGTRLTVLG
WRAIR-5001 (rhesus macaque), sequence (VH, as listed by the source, chain 1 of 2): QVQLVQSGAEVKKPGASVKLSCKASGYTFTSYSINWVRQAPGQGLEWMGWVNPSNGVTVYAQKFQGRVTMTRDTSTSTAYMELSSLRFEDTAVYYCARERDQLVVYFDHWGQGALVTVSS
WRAIR-5001 (rhesus macaque), sequence (VL, as listed by the source, chain 2 of 2): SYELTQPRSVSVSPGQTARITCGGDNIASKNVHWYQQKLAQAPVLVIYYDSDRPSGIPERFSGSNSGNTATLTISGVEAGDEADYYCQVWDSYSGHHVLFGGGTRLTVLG

SARS-CoV-1 RBD (domain or fragment)
Kd [1]: 154 nM
koff [1]: 0.00318 s⁻¹
kon [1]: 20700 M⁻¹ s⁻¹
Kd [2]: 12.7 nM
koff [2]: 0.0014 s⁻¹
kon [2]: 110000 M⁻¹ s⁻¹
Kd [3]: 3.45 nM
koff [4]: 0.00061 s⁻¹
kon [4]: 177000 M⁻¹ s⁻¹
Kd [5]: 28.9 nM
koff [5]: 0.00458 s⁻¹
kon [5]: 158000 M⁻¹ s⁻¹
